Patent US20240352097A1 (NATIONAL SUN YAT SEN UNIVERSITY, published 2024)

T1: JEV envelope (E) protein (Japanese encephalitis virus, UniProt P0DOH8 295-699)
T1 chain: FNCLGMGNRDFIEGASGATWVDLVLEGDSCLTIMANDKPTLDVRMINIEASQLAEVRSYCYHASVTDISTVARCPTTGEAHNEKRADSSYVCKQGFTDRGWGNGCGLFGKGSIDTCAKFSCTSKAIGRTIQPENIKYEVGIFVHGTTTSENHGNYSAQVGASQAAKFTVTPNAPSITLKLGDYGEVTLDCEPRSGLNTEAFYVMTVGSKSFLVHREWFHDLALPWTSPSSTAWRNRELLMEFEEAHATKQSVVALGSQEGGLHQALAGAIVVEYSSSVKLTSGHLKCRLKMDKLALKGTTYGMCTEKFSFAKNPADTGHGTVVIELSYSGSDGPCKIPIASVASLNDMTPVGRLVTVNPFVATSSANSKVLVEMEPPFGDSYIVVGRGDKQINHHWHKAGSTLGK

T2: DENV-1 envelope (E) protein (Dengue virus serotype 1, UniProt P27909 281-680)
T2 chain: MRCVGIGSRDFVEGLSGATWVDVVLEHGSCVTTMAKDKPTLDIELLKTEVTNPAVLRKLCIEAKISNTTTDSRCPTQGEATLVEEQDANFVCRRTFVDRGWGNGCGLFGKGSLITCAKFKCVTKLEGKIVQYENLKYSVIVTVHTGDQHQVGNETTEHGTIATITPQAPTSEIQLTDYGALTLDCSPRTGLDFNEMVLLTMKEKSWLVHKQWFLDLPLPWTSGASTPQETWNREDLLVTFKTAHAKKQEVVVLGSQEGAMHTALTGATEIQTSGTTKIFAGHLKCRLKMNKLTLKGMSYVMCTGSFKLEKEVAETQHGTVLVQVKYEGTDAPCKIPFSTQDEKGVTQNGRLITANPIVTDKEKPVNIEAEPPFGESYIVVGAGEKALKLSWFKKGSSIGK

T3: DENV-3 envelope (E) protein (Dengue virus serotype 3, UniProt Q5UB51 281-678)
T3 chain: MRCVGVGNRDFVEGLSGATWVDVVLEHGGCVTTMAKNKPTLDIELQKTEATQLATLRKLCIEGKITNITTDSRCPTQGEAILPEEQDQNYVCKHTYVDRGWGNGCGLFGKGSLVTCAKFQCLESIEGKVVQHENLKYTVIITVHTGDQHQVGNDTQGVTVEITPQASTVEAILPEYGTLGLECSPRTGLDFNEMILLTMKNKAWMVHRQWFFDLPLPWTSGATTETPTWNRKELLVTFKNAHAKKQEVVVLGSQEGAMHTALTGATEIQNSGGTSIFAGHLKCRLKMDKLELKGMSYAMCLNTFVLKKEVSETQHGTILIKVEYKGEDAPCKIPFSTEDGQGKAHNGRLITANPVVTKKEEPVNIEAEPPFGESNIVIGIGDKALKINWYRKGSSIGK


What was measured:
Test in all cases: cell-based or functional assay
[1] = target: DENV-2 envelope (E) protein (Dengue virus serotype 2, UniProt P29990 281-679)
[2] = target: DENV-4 envelope (E) protein (Dengue virus serotype 4, UniProt Q58HT7 280-679)
JEV envelope (E) protein = target: T1, JEV envelope (E) protein
[3] = target: T2, DENV-1 envelope (E) protein
[4] = target: T3, DENV-3 envelope (E) protein

Binder	neutralization (FRµNT50) [1]	neutralization (FRµNT50) [2]	neutralization (FRµNT50) (JEV envelope (E) protein)	neutralization (FRµNT50) [3]	neutralization (FRµNT50) [4]
K8b-IgG1 (antibody, V domains shown) VH: QVQLVQPGAEVVKPGASVKLSCKTSGYTFTSNWMHWVKQAPGQGLEWIGEIDPSDSYTNYNQNFQGKAKLTVDKSTSTAYMEVSSLRSDDTAVYYCARGSNPYYYAMDYWGQGTSVTVSS VL: EIVMMQSPLTLSLSPGERATLSCRASQSVSSNYLAWYQQRPGQAPRLLIYGVSSRATGVPVRFSGSGSGTDFTLTISRLEPEDFAVYYCQHYGGSLSWTFGQGTKVEIK	0.207 µg/mL	–	–	–	–
K8b-F(ab) (Fab, V domains shown) VH: QVQLVQPGAEVVKPGASVKLSCKTSGYTFTSNWMHWVKQAPGQGLEWIGEIDPSDSYTNYNQNFQGKAKLTVDKSTSTAYMEVSSLRSDDTAVYYCARGSNPYYYAMDYWGQGTSVTVSS VL: EIVMMQSPLTLSLSPGERATLSCRASQSVSSNYLAWYQQRPGQAPRLLIYGVSSRATGVPVRFSGSGSGTDFTLTISRLEPEDFAVYYCQHYGGSLSWTFGQGTKVEIKR	37 nM	–	–	–	–
K5-IgG1 (antibody, V domains shown) VH: EVQLLESGAEVKKPGSSVKVSCQASGDTFSNSDINWVRQAPGQGLEWMGGIIPAYDTTNYARTFQGRVAITADKSTSTVYMELSRLRSEDTAVYYCATDQRDYFGLGNHFNAQHFWGQGTLVTVSS VL: AIRMTQTPLSLSASVGDRVTITCRASQSISNYLNWYQQRPGKAPNLLIYTASNLHSGVPSRFSGSGSGTDFTLTISSLQPEDFATYYCQQSYSGGYTFGQGPSWEIK	0.215 µg/mL	1.51 µg/mL	0.682 µg/mL	0.771 µg/mL	1.21 µg/mL
